Drawing on ChEMBL document CHEMBL5579804, “Synthesis and kinetic evaluation of phosphomimetic inhibitors targeting type B ribose-5-phosphate isomerase from Mycobacterium tuberculosis” (Bioorg Med Chem Lett, 2024), this text covers Km for three proteins.

Compound in series [1]: O=P(O)(O)OC[C@H]1O[C@@H](O)[C@H](O)[C@@H]1O
As to the kind of experiment: Competitive inhibition of Escherichia coli RPIB assessed as Km using D-ribose-5-phosphate as substrate.

Compound in series [2]: O=P(O)(O)OC[C@H]1O[C@@H](O)[C@H](O)[C@@H]1O
As to the kind of experiment: Competitive inhibition of Escherichia coli RPIB assessed as Km using D-ribose-5-phosphate as substrate by spectrophotometric analysis.

Compound in series [3]: O=P(O)(O)OC[C@H]1O[C@@H](O)[C@H](O)[C@@H]1O
As to the kind of experiment: Competitive inhibition of Escherichia coli RPIB assessed as Km using D-ribose-5-phosphate as substrate by ultraviolet absorbance based spectrophotometric analysis.

Compound in series [4]: O=P(O)(O)OC[C@H]1O[C@@H](O)[C@H](O)[C@@H]1O
As to the kind of experiment: Competitive inhibition of Spinacia oleracea RPIA assessed as Km using D-ribose-5-phosphate as substrate by Michaelis-Menten kinetics analysis.

Compound in series [5]: O=P(O)(O)OC[C@H]1O[C@@H](O)[C@H](O)[C@@H]1O
As to the kind of experiment: Competitive inhibition of Spinacia oleracea RPIA assessed as Km using D-ribose-5-phosphate as substrate.

Compound in series [6]: O=P(O)(O)OC[C@H]1O[C@@H](O)[C@H](O)[C@@H]1O
As to the kind of experiment: Competitive inhibition of Spinacia oleracea RPIA assessed as Km using D-ribose-5-phosphate as substrate by ultraviolet absorbance based spectrophotometric analysis.

Compound in series [7]: O=P(O)(O)OC[C@H]1O[C@@H](O)[C@H](O)[C@@H]1O
As to the kind of experiment: Competitive inhibition of Mycobacterium tuberculosis RPIB assessed as Km using D-ribose-5-phosphate as substrate by spectrophotometric analysis.

Compound in series [8]: O=P(O)(O)OC[C@H]1O[C@@H](O)[C@H](O)[C@@H]1O
As to the kind of experiment: Competitive inhibition of Mycobacterium tuberculosis H37Rv RPIB extracted from Escherichia coli BL21 assessed as Km using D-ribose-5-phosphate as substrate incubated for 10 mins by ultraviolet absorbance based spectrophotometric analysis.

Compound in series [9]: O=P(O)(O)OC[C@H]1O[C@@H](O)[C@H](O)[C@@H]1O
As to the kind of experiment: Competitive inhibition of Mycobacterium tuberculosis RPIB assessed as Km using D-ribose-5-phosphate as substrate.

Compound in series [10]: O=P(O)(O)OC[C@H]1O[C@@H](O)[C@H](O)[C@@H]1O
As to the kind of experiment: Competitive inhibition of Mycobacterium tuberculosis RPIB assessed as Km using D-ribose-5-phosphate as substrate by ultraviolet absorbance based spectrophotometric analysis.

B1: Ribose-5-phosphate isomerase B (Escherichia coli (strain K12)), P37351 (protein)
chain: MKKIAFGCDHVGFILKHEIVAHLVERGVEVIDKGTWSSERTDYPHYASQVALAVAGGEVDGGILICGTGVGISIAANKFAGIRAVVCSEPYSAQLSRQHNDTNVLAFGSRVVGLELAKMIVDAWLGAQYEGGRHQQRVEAITAIEQRRN
With B1, the Michaelis-Menten constant (Km) in series [1] was 1600 µM; in series [2] it was 1500 µM; in [3] it was 1100 µM.

B2: ribose-5-phosphate isomerase (Spinacia oleracea), Q8RU73 (protein)
chain: MASAAFSLLPSTSSTTFNRHATTKLLNLKFLHNHRNKPFFTTTIKSLSSPSPTPVLTQDDLKKLAAEKAVDSVKSGMVLGLGTGSTAAFAVSRIGELLSAGKLTNIVGIPTSKRTAEQAASLGIPLSVLDDHPRIDLAIDGADEVDPDLNLVKGRGGALLREKMVEAASDKFIVVVDDTKLVDGLGGSRLAMPVEVVQFCWKYNLKRLQEIFKELGCEAKLRMEGDSSPYVTDNSNYIVDLYFPTSIKDAEAAGREISALEGVVEHGLFLGMASEVIIAGKTGVSVKTK
With B2, the Km is 7500 µM in series [4], 3000 µM in [5] and 3300 µM in series [6].

B3: Ribose-5-phosphate isomerase B (Mycobacterium tuberculosis), P9WKD7 (protein)
chain: MSGMRVYLGADHAGYELKQRIIEHLKQTGHEPIDCGALRYDADDDYPAFCIAAATRTVADPGSLGIVLGGSGNGEQIAANKVPGARCALAWSVQTAALAREHNNAQLIGIGGRMHTVAEALAIVDAFVTTPWSKAQRHQRRIDILAEYERTHEAPPVPGAPA
On to B3, for which the Km in [7] turned out to be 3100 µM; in [8] it was 3700 µM; in series [9], 2100 µM; in series [10], 1000 µM.

The Km is the substrate concentration at which the rate is half of its maximum.
